Results reported in patent US20200230249A1 (UREKA SARL, published 2020).
Numbered stars: 1 amine (or outer) side, 2 acyl side, 3 side chain; on linkers, the order of the positions; unused ones are H or OH. Square brackets hold non-standard residues; d marks the D form. Ends that are not written are not given here. A^u = urea/ureido (oligourea) residue with alanine side chain, C[C@@H](CNC(=O)[*:2])N[*:1]; Au = A^u, ureido (oligourea) alanine residue, C[C@@H](CNC(=O)[*:2])N[*:1]; D^uα = urea/ureido residue with aspartic acid side chain; E^u = urea/ureido residue with glutamic acid side chain; Y^u = urea/ureido residue with tyrosine side chain

T1: mouse GLP-1 receptor endogenously expressed in βTC6 cells (mouse, UniProt O35659 22-463)
T1 sequence (looked up): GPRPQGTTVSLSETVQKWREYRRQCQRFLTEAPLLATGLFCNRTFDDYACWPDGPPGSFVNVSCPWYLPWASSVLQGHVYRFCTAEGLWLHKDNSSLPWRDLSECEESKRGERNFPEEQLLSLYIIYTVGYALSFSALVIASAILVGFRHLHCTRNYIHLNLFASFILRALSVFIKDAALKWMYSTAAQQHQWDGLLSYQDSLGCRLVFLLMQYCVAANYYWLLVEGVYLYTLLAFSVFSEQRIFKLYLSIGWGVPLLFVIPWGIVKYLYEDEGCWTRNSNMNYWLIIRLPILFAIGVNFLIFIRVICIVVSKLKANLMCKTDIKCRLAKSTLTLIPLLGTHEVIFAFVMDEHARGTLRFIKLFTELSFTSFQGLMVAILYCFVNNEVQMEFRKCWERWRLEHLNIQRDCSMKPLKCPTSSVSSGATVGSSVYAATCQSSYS

B1: GLP-1-G^2 (GG2) (peptide)
peptide: H-HGEGTFTSDVSSYLEGQAAKEFIAWLVKGRG-NH2
B2: GG2[F^UαI^UA^U]^22-25 (peptide)
peptide: HGEGTFTSDVSSYLEGQAAKEXXXLVKGRG
modifications: ureido (oligourea) residues F^uα I^u A^u at positions 22-24 of the hybrid, replacing residues 22-25 of GLP-1-G2; C-terminal amide
B3: GG2[A^UA^UA^U]^19-22 (peptide)
peptide: HGEGTFTSDVSSYLEGQA[A^u][A^u][A^u]IAWLVKGRG-NH2
modifications: N-terminus assumed
SMILES: CC[C@H](C)[C@H](NC(=O)NC[C@H](C)NC(=O)NC[C@H](C)NC(=O)NC[C@H](C)NC(=O)[C@H](C)NC(=O)[C@H](CCC(N)=O)NC(=O)CNC(=O)[C@H](CCC(=O)O)NC(=O)[C@H](CC(C)C)NC(=O)[C@H](Cc1ccc(O)cc1)NC(=O)[C@H](CO)NC(=O)[C@H](CO)NC(=O)[C@@H](NC(=O)[C@H](CC(=O)O)NC(=O)[C@H](CO)NC(=O)[C@@H](NC(=O)[C@H](Cc1ccccc1)NC(=O)[C@@H](NC(=O)CNC(=O)[C@H](CCC(=O)O)NC(=O)CNC(=O)[C@@H](N)Cc1c[nH]cn1)[C@@H](C)O)[C@@H](C)O)C(C)C)C(=O)N[C@@H](C)C(=O)N[C@@H](Cc1c[nH]c2ccccc12)C(=O)N[C@@H](CC(C)C)C(=O)N[C@H](C(=O)N[C@@H](CCCCN)C(=O)NCC(=O)N[C@@H](CCCNC(=N)N)C(=O)NCC(N)=O)C(C)C
B4: GG2[Y^uE^uA^uA^uA^uA^u]^14-21 (peptide)
peptide: HGEGTFTSDVSSY[Y^u][E^u][A^u][A^u][A^u][A^u]FIAWLVKGRG-NH2
B5: GG2[A^UA^UA^U]^12-15 (peptide)
peptide: H-HGEGTFTSDVS[Au][Au][Au]GQAAKEFIAWLVKGRG-NH2
modifications: also: oligourea (urea) backbone at A^u units
B6: GG2[A^UA^UA^U]^18-21 (peptide)
peptide: HGEGTFTSDVSSYLEGQ[A^u][A^u][A^u]FIAWLVKGRG-NH2
B7: GG2[A^UA^UA^U]^23-26 (peptide)
peptide: HGEGTFTSDVSSYLEGQAAKEF[A^u][A^u][A^u]VKGRG-NH2
modifications: N-terminus assumed
SMILES: CC(C)C[C@H](NC(=O)[C@H](Cc1ccc(O)cc1)NC(=O)[C@H](CO)NC(=O)[C@H](CO)NC(=O)[C@@H](NC(=O)[C@H](CC(=O)O)NC(=O)[C@H](CO)NC(=O)[C@@H](NC(=O)[C@H](Cc1ccccc1)NC(=O)[C@@H](NC(=O)CNC(=O)[C@H](CCC(=O)O)NC(=O)CNC(=O)[C@@H](N)Cc1c[nH]cn1)[C@@H](C)O)[C@@H](C)O)C(C)C)C(=O)N[C@@H](CCC(=O)O)C(=O)NCC(=O)N[C@@H](CCC(N)=O)C(=O)N[C@@H](C)C(=O)N[C@@H](C)C(=O)N[C@@H](CCCCN)C(=O)N[C@@H](CCC(=O)O)C(=O)N[C@@H](Cc1ccccc1)C(=O)N[C@@H](C)CNC(=O)N[C@@H](C)CNC(=O)N[C@@H](C)CNC(=O)N[C@H](C(=O)N[C@@H](CCCCN)C(=O)NCC(=O)N[C@@H](CCCNC(=N)N)C(=O)NCC(N)=O)C(C)C
B8: GG2[A^UA^UA^U]^15-18 (peptide)
peptide: H-HGEGTFTSDVSSYL[Au][Au][Au]AKEFIAWLVKGRG-NH2
modifications: also: oligourea (urea) backbone at A^u units
B9: GG2[A^UA^UA^U]^24-27 (peptide)
peptide: HGEGTFTSDVSSYLEGQAAKEFIXXXKGRG
modifications: ureido (oligourea) residues A^u A^u A^u at positions 24-26 of the hybrid, replacing residues 24-27 of GLP-1-G2; C-terminal amide
B10: GG2[A^UA^UA^U]^10-13 (peptide)
peptide: H-HGEGTFTSD[Au][Au][Au]LEGQAAKEFIAWLVKGRG-NH2
modifications: also: oligourea (urea) backbone at A^u units
B11: GG2[A^UA^UA^U]^17-20 (peptide)
peptide: HGEGTFTSDVSSYLEG[A^u][A^u][A^u]EFIAWLVKGRG-NH2
modifications: N-terminus assumed
SMILES: CC[C@H](C)[C@H](NC(=O)[C@H](Cc1ccccc1)NC(=O)[C@H](CCC(=O)O)NC(=O)NC[C@H](C)NC(=O)NC[C@H](C)NC(=O)NC[C@H](C)NC(=O)CNC(=O)[C@H](CCC(=O)O)NC(=O)[C@H](CC(C)C)NC(=O)[C@H](Cc1ccc(O)cc1)NC(=O)[C@H](CO)NC(=O)[C@H](CO)NC(=O)[C@@H](NC(=O)[C@H](CC(=O)O)NC(=O)[C@H](CO)NC(=O)[C@@H](NC(=O)[C@H](Cc1ccccc1)NC(=O)[C@@H](NC(=O)CNC(=O)[C@H](CCC(=O)O)NC(=O)CNC(=O)[C@@H](N)Cc1c[nH]cn1)[C@@H](C)O)[C@@H](C)O)C(C)C)C(=O)N[C@@H](C)C(=O)N[C@@H](Cc1c[nH]c2ccccc12)C(=O)N[C@@H](CC(C)C)C(=O)N[C@H](C(=O)N[C@@H](CCCCN)C(=O)NCC(=O)N[C@@H](CCCNC(=N)N)C(=O)NCC(N)=O)C(C)C
B12: GG2[A^UA^UA^U]^13-16 (peptide)
peptide: HGEGTFTSDVSS[Au][Au][Au]QAAKEFIAWLVKGRG-NH2
modifications: also: oligourea (urea) backbone at A^u units
B13: GG2[A^UA^UA^U]^16-19 (peptide)
peptide: H-HGEGTFTSDVSSYLE[Au][Au][Au]KEFIAWLVKGRG-NH2
modifications: also: oligourea (urea) backbone at A^u units
B14: GG2[Y^UE^UA^U]^14-17 (peptide)
peptide: HGEGTFTSDVSSY[Y^u][E^u][A^u]AAKEFIAWLVKGRG-NH2
B15: GG2[A^UA^UA^U]^11-14 (peptide)
peptide: HGEGTFTSDV[Au][Au][Au]EGQAAKEFIAWLVKGRG-NH2
modifications: also: oligourea (urea) backbone at A^u units
B16: GG2[A^UA^UA^U]^14-17 (peptide)
peptide: H-HGEGTFTSDVSSY[Au][Au][Au]AAKEFIAWLVKGRG-NH2
modifications: also: oligourea (urea) backbone at A^u units
B17: GG2[D^UαA^UA^U]^9-12 (peptide)
peptide: HGEGTFTS[D^uα][A^u][A^u]YLEGQAAKEFIAWLVKGRG-NH2
B18: GG2[A^UY^UA^U]^11-14 (peptide)
peptide: HGEGTFTSDV[A^u][Y^u][A^u]EGQAAKEFIAWLVKGRG-NH2
B19: GG2[E^UA^UA^U]^15-18 (peptide)
peptide: HGEGTFTSDVSSYL[E^u][A^u][A^u]AKEFIAWLVKGRG-NH2

Molecular target: T1, mouse GLP-1 receptor endogenously …
Experiment: cell-based or functional assay

Row | Binder | EC50 (nM), cAMP production functional assay | Potency (%) compared to GLP-1-G^2, cAMP production
1 | B1 | 0.24 nM | 100%
2 | B2 | 62 nM | 0.4%
3 | B3 | > 10000 nM | < 0.01%
4 | B4 | 3.4 nM | 7%
5 | B5 | > 10000 nM | < 0.01%
6 | B6 | 4.1 nM | 6%
7 | B7 | 3930 nM | 0.01%
8 | B8 | 123 nM | 0.2%
9 | B9 | > 10000 nM | < 0.01%
10 | B10 | 650 nM | 0.04%
11 | B11 | 1600 nM | 0.01%
12 | B12 | > 10000 nM | < 0.01%
13 | B13 | 240 nM | 0.1%
14 | B14 | 0.18 nM | 135%
15 | B15 | 97 nM | 0.2%
16 | B16 | 353 nM | 0.07%
17 | B17 | 13 nM | 2%
18 | B18 | 1.6 nM | 15%
19 | B19 | 1.9 nM | 13%
